Several values for one entry are separate records, joined by “and”; a condition that tells them apart may be missing. Equal entries are not always repeated. No end group written: not given here.
Columns and labels:
[1] = molecular target: T1, Pla1_(EEQE): Pla1RRM with K559/R560/Q561/K562 changed to EEQE (S. pombe, UniProt Q10295 352-566, K559/R560/Q561/K562 to EEQE); assay: ITC
T1 sequence: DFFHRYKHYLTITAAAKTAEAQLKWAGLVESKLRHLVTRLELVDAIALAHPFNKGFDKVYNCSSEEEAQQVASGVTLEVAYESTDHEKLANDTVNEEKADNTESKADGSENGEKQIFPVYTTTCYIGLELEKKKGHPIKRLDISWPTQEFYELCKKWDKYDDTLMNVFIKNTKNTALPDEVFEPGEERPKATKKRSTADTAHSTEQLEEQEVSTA

[2] = molecular target: T2, Pla1EEE: Pla1RRM with K544/K545/R546 changed to EEE (S. pombe, UniProt Q10295 352-566, K544/K545/R546 to EEE); assay: ITC
T2 sequence: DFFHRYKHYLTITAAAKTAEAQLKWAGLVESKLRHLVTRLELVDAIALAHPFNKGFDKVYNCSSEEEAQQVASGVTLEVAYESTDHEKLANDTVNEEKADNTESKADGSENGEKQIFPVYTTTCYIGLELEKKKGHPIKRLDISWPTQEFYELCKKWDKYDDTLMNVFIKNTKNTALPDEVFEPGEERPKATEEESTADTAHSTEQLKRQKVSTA

[3] = molecular target: T3, Pla1RRM with the charge reversal mutation K368E (S. pombe, UniProt Q10295 352-566, K368E); assay: ITC
T3 sequence: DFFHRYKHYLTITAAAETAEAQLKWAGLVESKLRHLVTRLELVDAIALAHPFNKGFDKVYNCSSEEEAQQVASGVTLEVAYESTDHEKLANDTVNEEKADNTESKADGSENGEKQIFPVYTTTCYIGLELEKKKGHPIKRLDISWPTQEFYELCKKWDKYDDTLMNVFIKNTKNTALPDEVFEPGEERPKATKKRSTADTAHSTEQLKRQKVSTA

[4] = molecular target: T4, C-terminal RRM domain of Pla1 (Pla1RRM, residues 352-566), purified (S. pombe, UniProt Q10295 352-566); assay: ITC; MicroCal PEAQ-ITC, 25 °C, 20 mM HEPES pH 7.5, 150 mM NaCl, 2 mM BME; 40-50 µM protein in the cell, 400-500 µM ligand in the syringe; one-binding site model; conditions: both partners purified
T4 construct: canonical poly(A) polymerase Pla1, S. pombe, C-terminal RRM domain, residues 352-566; also called Pla1 CTD; source: E. coli BL21 (DE3) Rosetta2, purified (His-Trap, TEV cleavage, Resource Q, Superdex 200); not shown: His6, N-terminal, cleaved
T4 sequence (looked up): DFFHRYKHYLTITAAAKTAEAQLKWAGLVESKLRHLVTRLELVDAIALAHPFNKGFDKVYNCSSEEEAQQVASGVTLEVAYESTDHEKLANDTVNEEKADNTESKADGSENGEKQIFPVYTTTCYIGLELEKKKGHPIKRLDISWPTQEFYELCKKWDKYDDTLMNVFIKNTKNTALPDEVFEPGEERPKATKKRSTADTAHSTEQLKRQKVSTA

[5] = molecular target: T5, Pla1RRM with the charge reversal mutation K368E (S. pombe, UniProt Q10295 352-566, K368E); assay: as above; conditions: both partners purified
T5 construct: canonical poly(A) polymerase Pla1, S. pombe, RRM domain, residues 352-566 with K368E; source: E. coli BL21 (DE3) Rosetta2, purified; not shown: His6, N-terminal, cleaved
T5 sequence (looked up): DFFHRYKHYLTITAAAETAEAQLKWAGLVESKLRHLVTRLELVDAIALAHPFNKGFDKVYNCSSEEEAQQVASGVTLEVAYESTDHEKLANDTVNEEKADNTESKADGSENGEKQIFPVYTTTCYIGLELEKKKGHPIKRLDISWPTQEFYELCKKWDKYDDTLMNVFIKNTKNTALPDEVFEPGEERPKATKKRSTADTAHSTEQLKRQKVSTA

[6] = molecular target: T6, Pla1EEE: Pla1RRM with K544/K545/R546 changed to EEE (S. pombe, UniProt Q10295 352-566, K544/K545/R546 to EEE); assay: as above; conditions: both partners purified
T6 construct: canonical poly(A) polymerase Pla1, S. pombe, RRM domain, residues 352-566 with K544/K545/R546 to EEE; source: E. coli BL21 (DE3) Rosetta2, purified; not shown: His6, N-terminal, cleaved
T6 sequence (looked up): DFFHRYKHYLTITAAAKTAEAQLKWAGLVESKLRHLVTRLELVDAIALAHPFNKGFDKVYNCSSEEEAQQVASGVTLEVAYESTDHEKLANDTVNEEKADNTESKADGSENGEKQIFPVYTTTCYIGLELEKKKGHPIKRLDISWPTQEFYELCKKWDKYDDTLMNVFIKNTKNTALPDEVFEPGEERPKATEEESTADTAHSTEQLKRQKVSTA

[7] = molecular target: T7, Pla1_(EEQE): Pla1RRM with K559/R560/Q561/K562 changed to EEQE (S. pombe, UniProt Q10295 352-566, K559/R560/Q561/K562 to EEQE); assay: as above; conditions: both partners purified
T7 construct: canonical poly(A) polymerase Pla1, S. pombe, RRM domain, residues 352-566 with K559/R560/Q561/K562 to EEQE; source: E. coli BL21 (DE3) Rosetta2, purified; not shown: His6, N-terminal, cleaved
T7 sequence (looked up): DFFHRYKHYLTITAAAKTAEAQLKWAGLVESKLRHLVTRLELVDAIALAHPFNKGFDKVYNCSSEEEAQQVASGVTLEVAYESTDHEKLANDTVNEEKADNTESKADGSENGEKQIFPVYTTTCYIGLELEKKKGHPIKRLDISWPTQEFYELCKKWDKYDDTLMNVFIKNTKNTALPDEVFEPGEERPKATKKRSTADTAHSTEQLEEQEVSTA

[8] = molecular target: T4, C-terminal RRM domain of Pla1 (Pla1RRM, …); assay: ITC; competition: Red1_(288-345) titrated into Pla1RRM pre-incubated with a 1.1-fold molar excess of Iss1_(30-76); 25 °C, 20 mM HEPES pH 7.5, 150 mM NaCl, 2 mM BME; conditions: both partners purified
[9] = molecular target: T8, Pla1RRM (C-terminal RRM domain of Pla1, residues 352-566) (S. pombe, UniProt Q10295 352-566); assay: ITC; competition: Red1 288-345 titrated into Pla1RRM pre-incubated with a 1.1-fold molar excess of Iss1 30-76; 25 °C; 20 mM HEPES pH 7.5, 150 mM NaCl, 2 mM BME; conditions: both partners purified
T8 construct: Pla1, canonical poly(A) polymerase, S. pombe, C-terminal RRM domain, residues 352-566; also called Pla1 RRM domain; Pla1 CTD; source: E. coli BL21 (DE3) Rosetta2, purified (His-Trap, TEV cleavage, Resource Q, Superdex 200); not shown: His6, N-terminal, cleaved
T8 sequence (looked up): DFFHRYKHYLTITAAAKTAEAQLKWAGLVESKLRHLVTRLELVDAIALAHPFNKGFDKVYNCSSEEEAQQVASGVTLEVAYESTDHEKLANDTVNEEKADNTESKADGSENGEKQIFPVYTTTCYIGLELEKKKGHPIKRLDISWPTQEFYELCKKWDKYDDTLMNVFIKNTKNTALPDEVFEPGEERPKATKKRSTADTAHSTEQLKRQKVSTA

[10] = molecular target: T8, Pla1RRM (C-terminal RRM domain of Pla1, …); assay: ITC; Red1 or Iss1 construct in the syringe (400-500 µM) titrated into Pla1RRM (wild type or mutant) in the cell (40-50 µM); 25 °C; 20 mM HEPES pH 7.5, 150 mM NaCl, 2 mM BME; one-binding site model; each independent measurement listed; conditions: both partners purified
Pla1RRM K368E = molecular target: T9, Pla1RRM K368E (S. pombe, UniProt Q10295 352-566, K368E); assay: as above; conditions: both partners purified
T9 construct: Pla1, S. pombe, C-terminal RRM domain, residues 352-566; source: E. coli BL21 (DE3) Rosetta2, purified (His-Trap, TEV cleavage, Resource Q, Superdex 200); not shown: His6, N-terminal, cleaved
T9 sequence (looked up): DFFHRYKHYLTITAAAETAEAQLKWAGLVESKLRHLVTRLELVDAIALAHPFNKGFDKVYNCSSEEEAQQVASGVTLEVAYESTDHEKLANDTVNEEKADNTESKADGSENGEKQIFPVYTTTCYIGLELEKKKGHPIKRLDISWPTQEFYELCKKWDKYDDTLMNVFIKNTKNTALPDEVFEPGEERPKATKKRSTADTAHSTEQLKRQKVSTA

Pla1RRM EEQE = molecular target: T10, Pla1RRM EEQE (S. pombe, UniProt Q10295 352-566, K559/R560/Q561/K562 to EEQE); assay: as above; conditions: both partners purified
T10 construct: Pla1, S. pombe, C-terminal RRM domain, residues 352-566; also called Pla1_(EEQE); K559/R560/Q561/K562 to EEQE; source: E. coli BL21 (DE3) Rosetta2, purified (His-Trap, TEV cleavage, Resource Q, Superdex 200); not shown: His6, N-terminal, cleaved
T10 sequence (looked up): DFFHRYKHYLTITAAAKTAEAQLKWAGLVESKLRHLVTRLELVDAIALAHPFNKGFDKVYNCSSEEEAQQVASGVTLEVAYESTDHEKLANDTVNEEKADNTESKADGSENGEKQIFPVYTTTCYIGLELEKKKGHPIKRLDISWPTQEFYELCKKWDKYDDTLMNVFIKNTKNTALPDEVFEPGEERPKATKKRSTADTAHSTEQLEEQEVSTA

Pla1RRM EEE = molecular target: T11, Pla1RRM EEE (S. pombe, UniProt Q10295 352-566, K544/K545/R546 to EEE); assay: as above; conditions: both partners purified
T11 construct: Pla1, S. pombe, C-terminal RRM domain, residues 352-566; also called Pla1EEE; K544/K545/R546 to EEE; source: E. coli BL21 (DE3) Rosetta2, purified (His-Trap, TEV cleavage, Resource Q, Superdex 200); not shown: His6, N-terminal, cleaved
T11 sequence (looked up): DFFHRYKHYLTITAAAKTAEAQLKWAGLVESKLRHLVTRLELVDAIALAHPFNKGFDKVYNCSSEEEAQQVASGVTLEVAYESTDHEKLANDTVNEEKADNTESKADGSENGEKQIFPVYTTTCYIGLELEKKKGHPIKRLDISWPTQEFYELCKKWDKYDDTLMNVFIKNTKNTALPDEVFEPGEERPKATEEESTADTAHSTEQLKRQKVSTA

[11] = molecular target: T8, Pla1RRM (C-terminal RRM domain of Pla1, …); assay: ITC; control of the competition: Iss1 30-76 titrated into Pla1RRM pre-incubated with a 1.1-fold molar excess of Red1 288-345 W298A/F305A; 25 °C; 20 mM HEPES pH 7.5, 150 mM NaCl, 2 mM BME; conditions: both partners purified
[12] = molecular target: T8, Pla1RRM (C-terminal RRM domain of Pla1, …); assay: NMR titration; 1.5-fold molar excess of unlabelled Pla1RRM added to 0.3 mM 15N-labelled GB1-tagged Red1 constructs; 1H,15N-HSQC; 293 K; sodium phosphate pH 6.5, 100 mM NaCl; conditions: both partners purified

B1: Red1 residues 288-345 (Pla1 interaction region), purified (domain or fragment, S. pombe, UniProt Q9UTR8 288-345, looked up)
chain: ISLPLLKQDDWLSSSKPFGSSTPNVVIEFDSDDDGDDFSNSKIEQSNLEKPPSNSENG
notes: source: E. coli BL21 (DE3), purified (His-Trap, TEV cleavage, second IMAC, Superdex 75); not shown: GB1, N-terminal, cleaved; His6, C-terminal, kept
Kd [1]: 2.8 µM
Kd [2]: 9.8 µM
Kd [3]: 17.8 µM
Kd [4]: 1.4 µM
fold loss in affinity against wild-type Pla1RRM [5]: ~13 fold
fold loss in affinity against wild-type Pla1RRM [6]: ~7 fold
fold loss in affinity against wild-type Pla1RRM [7]: ~2 fold
KD into the pre-formed Pla1RRM-Iss1_(30-76) complex [8]: 11 µM

B2: Red1 288-345 (domain or fragment, S. pombe)
chain: ISLPLLKQDDWLSSSKPFGSSTPNVVIEFDSDDDGDDFSNSKIEQSNLEKPPSNSENG
notes: as for B1
stoichiometry N [9]: 1.11 and 1.82
Kd [10]: 1.56 µM and 1.15 µM and 1.37 µM
stoichiometry N [10]: 1.05 and 0.952 and 1.19
Kd (Pla1RRM K368E): 15.3 µM and 20.3 µM
stoichiometry N (Pla1RRM K368E): 0.8 and 1
Kd (Pla1RRM EEQE): 3.28 µM and 2.27 µM
stoichiometry N (Pla1RRM EEQE): 1.03 and 0.97
Kd (Pla1RRM EEE): 9.43 µM and 9.98 µM
stoichiometry N (Pla1RRM EEE): 0.86 and 0.94

B3: Iss1 30-76 (domain or fragment, S. pombe)
chain: VSNAKSPEQASEESDDSDIEFIIETKPGERAEPLGGSIATLGSTRPS
notes: Iss1 (fission yeast orthologue of scFip1), S. pombe, residues 30-76; source: E. coli BL21 (DE3) Rosetta2, purified (His-Trap, TEV cleavage, second IMAC flow-through, Superdex 75); not shown: His-Thioredoxin, N-terminal, cleaved
stoichiometry N [11]: 0.97 and 1
Kd [10]: 2.11 µM and 2.94 µM
stoichiometry N [10]: 1

B4: GB1-tagged Red1 288-322 (domain or fragment, S. pombe)
chain: ISLPLLKQDDWLSSSKPFGSSTPNVVIEFDSDDDG
modifications: not fully specified (N-terminus); also: 15N-labelled
notes: source: E. coli BL21 (DE3), 15N-labelled in M9 minimal medium, purified; not shown: GB1, N-terminal, kept; His6, C-terminal, kept
binding result [12]: binds

Source: PMC9922296, “Mechanistic insights into RNA surveillance by the canonical poly(A) polymerase Pla1 of the MTREC complex” (Nature Communications, 2023)
